Assay: yeast display, Sf9 membrane polyspecificity reagent, FACS + sequencing; frameworks hold sequencing errors
In short: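 Nanobodies came from a synthetic yeast display library in Saccharomyces cerevisiae BJ5465, induced with galactose for 36–48 hours and stained for 1 hour at 4 °C with 10% biotinylated, detergent-solubilized Sf9 membrane reagent. Cells were enriched on streptavidin microbeads and then FACS-sorted, with low and high (top ~1%) gates set on anti-HA fluorescence for expression and streptavidin fluorescence for reagent binding. Each polyreactivity label reflects the gate a clone came from. Genes were amplified by colony PCR, sequenced by MiSeq 2 × 250 and filtered by CDR length.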
In the case of “QVQLVESGGGLVQAGGSLRLSCAASGSTFQSYAMGWYRQAPGKERELVAGITSGDSTNYADSVKGRFTISRDNAKNTVYLQMNSLKPEDTAVYYCNAVTQARYYYWGQGTQVTVSS”, the “polyreactivity (PSR sort gate)” value is reported as “low polyreactivity”.
For “QVQLVESGGGLVQAGGSLRLSCAASGSIFGAYAMGWYRQAPGKERELVAAINYGGATTYYADSVKGRFTISRDNAKNTVYLQMNSLKPEDTAVYYCAADYLYAYGDVAVVYGWYAYYYWGQGTQVTVSS”, the “polyreactivity (PSR sort gate)” value was “low polyreactivity”.
In the case of “QVQLVESGGGLVQAGGSLRLSCAASGLTFYSYAMGWYRQAPGKERELVAAITWSGGGTYYADSVKGRFTISRDNAKNTVYLQMNSLKPVDTADYYCAADYWGYDIYYGLTERESWGQGTQVTVSS”, the “polyreactivity (PSR sort gate)” value is reported as “high polyreactivity”.
For “QVQLVESGGGLVQAGGSLRLSCAASGFIFKYYAMGWYRQAPGKERELVASISSYGSSTYYADSVKGRFTSSRDSAKNTVYLQLNSVKPEDTAVYYCAAPYNFWNFFDLIYVWDGYDYWGQGTQVTVSS”, the “polyreactivity (PSR sort gate)” value was “low polyreactivity”.
With “QVQLVESGGGLVQAGGSLRLSCAASGSIFVTNPMGWYRQAPGKERELVAAIRGGGGSTYYADSVKGRFTISRDNAKNTVYLQMNSLKPEDTAVYYCNADRRGYLQSEMDYWGQGTQVTVSS” the “polyreactivity (PSR sort gate)” value was “low polyreactivity”.
In the case of “QVQLVESGGGLVQAGGSLRLTCAASGSIFSTNAMGWYRQAPGKERELVATITSGGRTYYADSVKGRFTISRDNAKNTVYLQMNSLKPEDTAVYYCARVPPKYRWGRRLVYVHVDYWGQGTQVTVSS”, the “polyreactivity (PSR sort gate)” value is reported as “low polyreactivity”.
For “QVQLVESGGVLVQAGGSLRLSCAASGSLFTRYAMGGYRQAPGKVRELVAAISKSGTTTYYADSVKGRFTISRDNAKNTVYLQMNSLIPEDTAVYYCAAVPIAGKMDYWGQGTQVTVSS”, the “polyreactivity (PSR sort gate)” value was “high polyreactivity”.
In the case of “QVQLVDSGGGLVQAVGSLRLSCAASGRTFRRYAMGWYRQAPGKERELVAAISRSGGSTYYADSVNGRFTISRDNAKNTVYLQMNSLKPEDTAVYYCAAGIWSKLVEPFDYCGQGTQVTVSS”, the “polyreactivity (PSR sort gate)” value is reported as “high polyreactivity”.
With “QVQLVESGGGLVQAGGRLRLSCAASLYIYGGYGMGWYRKAPGKERELVAVITSSVSTDYADSVKGSFTISRDNAKNTVYLQMKSLKPEDTAVYYSSADFLWYIYNIGTSLEFEYWGQGTQVTVSS” the “polyreactivity (PSR sort gate)” value was “low polyreactivity”.
With “QVQLVESGGGLVQAGGSLRLSCAASGRTFYIYAMGWYRQAPGKERELVAAISTRDTRTYYADSVKGRFTISRDNAKNTVYLQMNSLKPEDTAVYYCAADAVDRDSDYWGQGTQVTVSS” the “polyreactivity (PSR sort gate)” value was “high polyreactivity”.
In the case of “QVQLVESGGGLVQAGGSLRLSCAASGRTFYNAMGWYRQAPGKERELVAGIRWSGASTYYADSVKGRFTISRDNAKNTVYLQMNSLKPEDTAVYYCAARRHSTRLRLTYDYWGQGTQVTVSS”, the “polyreactivity (PSR sort gate)” value is reported as “high polyreactivity”.
For “QGQLEESGGGLVQAGGSLRLSCAASGRTFGPYAMGRYRQAPGKERELVAAIRSAGSTYYADSVKGRFTISRDNAKNTVYLQMISLKPEDTAVYYCADDIARHLTGFAYYRLDYWGQGTQVTVSS”, the “polyreactivity (PSR sort gate)” value was “low polyreactivity”.
In the case of “QVQLVESGGGLVQAGGSLRLSCAASGSIFRYYAMGWYRQAPGKERELVAAISSSGGSTYYADSVKGRFTISRDNAKNTVYLQMNSLKPEDTAGYYCAAVYTQSNSATMYYWGQGTQVTVSS”, the “polyreactivity (PSR sort gate)” value is reported as “high polyreactivity”.
With “QVQLVESGGGLVQAGGSLRLTCAASGYIFNRNAMGWYRQAPGKERELVAAISGSGAVTYYADSVKGRFTISRDNAKNTVYFQMNSLKPEDTAVYYCAKKLYWREGRYDYWGQGTQVTVSS” the “polyreactivity (PSR sort gate)” value was “high polyreactivity”.
In the case of “QVQLVESGGGLVQAGGSLRLSCAPSGSIFDYYVRGWSRQAPGKERELVAAISWSGASTYYADSVKGRFTISRDNAKNTVYLQITSLKPEDTAVYYCAADYGVNTLIDYDYWGQGTQVTVSS”, the “polyreactivity (PSR sort gate)” value is reported as “low polyreactivity”.
For “QVQLVESGGGLVQAGGRLRLSCAASGSIFFDNTMGWYRQAPWKERELVASITYSGSTYADSVKGRFTISRDNAKNTVYLQMNSLKPEDTAVYYCNTESYWKVERFDYWGQGTHVTVSS”, the “polyreactivity (PSR sort gate)” value was “low polyreactivity”.
For “QVQLVESGGGLVQAGGSLRLSCAASGSTFRDNAMGWYRQAPGKERELVAAISRSGARTYYADSVKGRFTISRDNAKNTVYLQMNSLKPEDTAVYYCNAVWRVKYRRGLDYWGQGTQVTVSS”, the “polyreactivity (PSR sort gate)” value was “high polyreactivity”.
With “QVQLVESGAGLVQAGGSLRLSCAASGRIFPGYVMGWYRQAHGKERELVAAITRGGSTYYADSVKGRFTISRDNAKNTVYLQMNSLKPDDTAVYYCAAKHSHIHYNYWGQGTQVTVSS” the “polyreactivity (PSR sort gate)” value was “low polyreactivity”.
In the case of “QVQLVESGGGLVQAGGSLRLSCAASGSTFGRNAMGWYRQAPGKERELVAAINWSDGSTHYADSVKGRFTISRDNAKNTVYLQMNSLKPEDTAVYYCAADAWSWPVDYNYWGQGTQVTVSS”, the “polyreactivity (PSR sort gate)” value is reported as “low polyreactivity”.
In the case of “QVQLVESGGGLVQAGGSLRLSCAASGRTFRYYAMGWYRQAPGKERELVATSTGSGGSTYYADSVKGRFTISRDNSKNTVYLQMNSLKPEDTAVYYCNARKVRYPYRWYDYWGQGTQVTVSS”, the “polyreactivity (PSR sort gate)” value is reported as “high polyreactivity”.
In the case of “QVQLVESGGGLVQAGGSLRLSCAASGRIFYRYAMGWYRQAPGKERELVATISSGASTNYADSVKGRFTISRDNAKNTVYVQMNSLKPEDTADYYCARLSLRYSYVSRDYWGHGTQVTVSS”, the “polyreactivity (PSR sort gate)” value is reported as “low polyreactivity”.
In the case of “QVQLVESGGGLVQAGGSLRLRCAASGSTFGGYAMGWYRQAPGKERELVAAISRRGGRTYYADSVKGRFRISRDNAKNTVYLQRNSLKPEDTAVYYSAADWSYVRYYYWGQGTQVTVSS”, the “polyreactivity (PSR sort gate)” value is reported as “high polyreactivity”.
For “QVQIVESGRGLVQAGGSLRLSCAASGSTFKYYAMGWYIQAPGKERELVAAISWTGGSTYYADSVKGRFTISRDNAKNTVYLQMNSLKPEDTAVYYCNALGHVQGYDYWGQGTQVTVSS”, the “polyreactivity (PSR sort gate)” value was “high polyreactivity”.
In the case of “QVQLVESGGGLVQAGGSLRLSCAASGSTFRYYAMGWYRQAPGKERELVASISTGGRTYYADSVKGRFTISRDNAKNTVYLQMNSLKPEDTAVYYCAAQGYWIYNTAYGYWGQGTQVTVSS”, the “polyreactivity (PSR sort gate)” value is reported as “high polyreactivity”.
For “QVQLVESGGGLVQAGGSLRLSCAASGRTLRWYAMGWYRQAPGKERELVAAITWRGGSTRYADSVKGRFTISRDNAKNTVYLQMNSLKPEDTAVYYCNKYYYRTIEGDYWGQGTQVTVSS”, the “polyreactivity (PSR sort gate)” value was “high polyreactivity”.
In the case of “QVQLVESGGGLVQAGGSLRLSCAASGRIFALNALGWYRQAPGKERELVATFRWSGGSTYYADSVKGRFTISRDYAKNTVYLQMNSLKPEDTAVYYCAAYSGNRRTYDYWGHGTQVTVSS”, the “polyreactivity (PSR sort gate)” value is reported as “high polyreactivity”.
For “QVQLVESGGGLVQAGGSLRLICAASGYTFLDYARGWYRQAPGKERELVASITSSGGSTYYADSVKGRFTISRDNAKNTVFLQMMSLIPEDTAVYYCASDGCIYYYFTLRYGYWGQGTQVTVSS”, the “polyreactivity (PSR sort gate)” value was “low polyreactivity”.
With “QVQLVESGGGLVQAGGSLRLSCAASGRTFRIYALGWYRQAPGTERELVATIDSGGSTNYADSVKGRFTISRDNAKNTVYFQMNSLKPEDTAVYYCNAEDKPWYYLAGQAEYDSWGQGTQVTVSS” the “polyreactivity (PSR sort gate)” value was “low polyreactivity”.
With “QVQLVESGGGLVQAGVSLRLSCAASGLTFPGYAMGWYRQATGKQRELVAAISRRGGSTYYADSVKGRFTISRDNEKNTVYLKMNSLKTEDTAVYYCNAVIRRYFVPSSYDYWGQGTQVTVSS” the “polyreactivity (PSR sort gate)” value was “high polyreactivity”.
With “QVQLVESGGGLVQAGGSLRLSCAASGRIFPYNAMGWYRQAAGKERELVAAISLSGDSTYYADSVKGRFTISRDNAKNTVFLHMNSLKPEDTAVYYCNAPSYWYYPVLGSFLTFEYWGQGTQVTVSS” the “polyreactivity (PSR sort gate)” value was “low polyreactivity”.
In the case of “QVQLIESGGGLVQAGGSLRLSCAASGSTCDRNSMGWYRPAPGKERELVAAIDSDVNTYYADSVKGRFTISRDKAKNTVYLQMNSLTPEDTAVYYCAADYYSWPYDYWGQGTQVTVSS”, the “polyreactivity (PSR sort gate)” value is reported as “low polyreactivity”.
In the case of “QVQLVESGGGLVQAGGSLRLSCAASGLIFVKYAMGWYRQAPGKERELVAAITSTGGSTYYADSVKGRFTISRDNAKNTVYLQMNILKPEDTAVYYCATDYGYYDYWGQGTQVTVSS”, the “polyreactivity (PSR sort gate)” value is reported as “low polyreactivity”.
In the case of “QVQLVESGGGLVQAGGSLRLSCAASGSTSKSYTMGWYRQAPGKERELVAAISYSGVSTYYADSVKGRFTISRDNAKNTVYLQMNSLKPEDTAVYYCAKRTRKYTVGYYYWGQGTQVTVSS”, the “polyreactivity (PSR sort gate)” value is reported as “high polyreactivity”.
In the case of “QVQHVESGGGIVQAGGSLRLSCAASGIIFSDYAMGWYRQARGKERELVATITRSVRTSYADSVKGRFTISRDNAKNTVYLQMNSLKPEDTAVYYCYADVVGAVIAYDYWGQGTQVTVSS”, the “polyreactivity (PSR sort gate)” value is reported as “low polyreactivity”.
For “QVQLVESGGGLVQAGVSLRLSCAASGRIFFPNGMGCYRQAPGKESELVATISRIGGSTYYADSVKGRFTISRDNAKNTVYLQMNSLKPEDTAVYYFAAQYSYGVYWTLPYGYNYWGQGTQVTVSS”, the “polyreactivity (PSR sort gate)” value was “low polyreactivity”.
With “QGQLVESGGGLVQAGGSLRLSCAASGSMFYRYAMGWYRQAPGKERELVAVITSAGGTHYADSVKGRFTISRDNAKNTVYLQMTSLKPEDTAVDYCARRGYYYDYWGEGTQVTVSS” the “polyreactivity (PSR sort gate)” value was “high polyreactivity”.
In the case of “QVQLVESGGGLVQAGGSLRLSCAASGRNFRKYAMGWYRQAPGKERELVAAITSSGGSTYYADSVKGRFTISRDNAKNTVYLQMNSLKPVDTAVYYCAAQKRGSPGYRRDYWGQGTQVTVSS”, the “polyreactivity (PSR sort gate)” value is reported as “high polyreactivity”.
With “QVQLVESGGGLVQAGGSLRLSCAASGSIFWQNTMGWYRQAPGKERELVAAISWSGGRTYYADSVKGRFTISRDNAKNTVSLPMNSLKPEDTAVYYCNKLLSQRRYHSEMDYWGQGTQVTVSS” the “polyreactivity (PSR sort gate)” value was “high polyreactivity”.
With “QVQLVESGGGLVQAGGTLRLSCAASGFIFDWNTKGWYRQAPGKERELVAAITESSGSTYYADSVKGRFTISRDNAKNTVYLQMNSLKPEDTAVYYCAAELDVYVSIGSRFHFDYWGQGTQVTVSS” the “polyreactivity (PSR sort gate)” value was “low polyreactivity”.
For “QVQLVESGAGLVQAGGSLRLSCAASGRNFGTYAMGWYTQAPGTERELVAGINGSGGSTYYADSVKGRFTISRDNAKNTVFLQMNSLKPEDTAVYYCAKYNWYRAWRYGYWGQGTQVTVSS”, the “polyreactivity (PSR sort gate)” value was “high polyreactivity”.
For “QVQLVESGGGLVQAGGSLRLSCAASGSIFYYYAMGWYRQAPGKERELVAAITSGGSTYYADSVKGRFTISRDNAKNTVYLQMNSLKPEDTAVYYCAAVFYAAYLRYVWYSYDYWGQGTQVTVSS”, the “polyreactivity (PSR sort gate)” value was “low polyreactivity”.
For “QVQLVESGGCLVQAGGSLRLSCAASGSTFKTYTMGWYRQAPGKERELVAAITWSGGRTYYADSGKGRFTISRDNAKNTVYLQMNSLKPEDTAVYYCAADWGEEYTRDDYCGQGTQVTVSS”, the “polyreactivity (PSR sort gate)” value was “low polyreactivity”.
In the case of “QVQLVESGGGLVQAGGSLRLSCAASGLTFGRNAMGWYRQAPGKERELVAAITFNGGSTYYADSVKGRFTISRDNAKNTVYIQMNSLKPEDTAVYYCAAPYYVYWTYPYRVLSYYYWGQGTQVTVSS”, the “polyreactivity (PSR sort gate)” value is reported as “high polyreactivity”.
